Results: patent publication US20230279055A1 (University of Washington, published 2023)
Positions count from the first letter of the chain named. Numbers in names are those of the source.

Experiments:
[1] = target: the molecule itself; assay: SEC-MALS, self-association
[2] = target: the molecule itself; assay: SEC-MALS, oligomeric state of the dominant species (D = dimer)
Procedure: (§1) FIG. 14. […] Samples were prepared in 20 mM Tris·HCl, 150 mM sodium chloride, pH 7.5.
(§2) To ascertain the oligomerisation state of dIG proteins, SEC-MALS was performed in a Dawn Helios™ II apparatus (Wyatt Technologies) coupled to a SEC Superdex™ 75 Increase 10/300 column. The column was equilibrated with PBS or buffer B at 25° C. and operated at a flow rate of 0.5 mL/min. A total volume of 100-165 μL of protein solution at 1-3.0 mg/mL was employed for each sample. Data processing and analysis proceeded with Astra 7 software (Wyatt Technologies), for which a typical dn/dc value for proteins (0.185 mL/g) was assumed.

[3] = target: the molecule itself; assay: SEC-MALS, oligomeric state of the dominant species (M = monomer, D = dimer)
Procedure: FIG. 12. Biochemical characterization of the dIG8 design. a, Far-ultraviolet circular dichroism spectra (25° C., 95° C.). b, Thermal denaturation monitored at 220 nm by circular dichroism. The design denatures at temperatures above 95° C. c, SEC-MALS analysis. The protein is monodispersed and has an estimated molecular weight of 16.6 kDa, which lies between that corresponding to the theoretical monomer (10.3 kDa) and dimer (20.6 kDa). The protein includes the thrombin cleavage site and the hexa-histidine purification tag, which adds 2.3 kDa to the design. d, Chemical denaturation with guanidine hydrochloride monitored at 220 nm by circular dichroism. […] All experiments were carried out with PBS buffer.
as §1, §2

[4] = target: the molecule itself; assay: SEC-MALS, self-association, PBS buffer
Procedure: FIG. 13. […] All experiments were carried out with PBS buffer.
as §2

B1: dIG14-scdim (other)
chain: GRVEVRVEFEGDKMRVRLRNDSSTPVEVHIKVGDEKRTVTVNPGEEVEVTFSANDPHKFNRPQFTIEWGGGGRVEVRVEFEGDKMRVRLRNDSSTPVEVHIKVGDEKRTVTVNPGEEVEVTFSANDPHKFNRPQFTIEWG
notes: Two 6-stranded dIG14 domains (X1-X13) fused by a diglycine linker; also called single-chain dimer; dIG14-scdim designed with a GG linker
Question: Does B1 bind [1]?
Answer: no binding

B2: dIG7 (other)
chain: RMEVRVSNGRVEIENKSSQPGRVEVRFNGKRYEYTANPGERVEVEVSPEELKNLRVRLEYDGKTEETQYS
notes: De novo designed immunoglobulin-like domain; not shown: N-terminal thrombin-cleavable His6-tag encoded by pET-28b+
Question: Does B2 bind [2]?
Answer: binds

B3: dIG8 (other)
chain: RIEVRVDNGRVRVRNGTDRPVRVRVTAGGETREYTVNPGTELEVELSPEQQNNAEVEVEVGNEKYRFQLG
notes: De novo designed immunoglobulin-like domain; also called parental dIG8; not shown: N-terminal hexa-histidine tag and thrombin cleavage site from pET-28b+ (adds 2.3 kDa)
Question: Does B3 bind [3]?
Answer: binds

B4: dIG15 (other)
chain: RPKVQLELHGNKMRVRLRNDSSTPVEVHIKVGDEKRTVTVNPGEEVEVTFSTTDPRELKNATIQLHQGDQTVEYRVD
notes: as for B2
Question: Does B4 bind [2]?
Answer: binds

B5: dIG14 (other)
chain: MGRVEVRVEFEGDKMRVRLRNDSSTPVEVHIKVGDEKRTVTVNPGEEVEVTFSANDPHKFNRPQFTIEWGGQRQHFQHHHHHH
notes: De novo designed immunoglobulin-like domain; Built here as the crystallization construct (pET28*-dIG14); it may instead be the pET-28b+ form with an N-terminal thrombin-cleavable His6-tag; also called designed ImmunoGlobulin 14
Question: Does B5 bind [2]?
Answer: binds

B6: dIG23 (other)
chain: DLEVRRKDGKFEFRNNSDKPATLEVEKDGQREEYRMNPGETIEVQAPPGQDVRFTVEMPGREYRYKLD
notes: as for B2
Question: Does B6 bind [2]?
Answer: binds

B7: dIG8-CC (other)
chain: GHMRIEVRVDNGRVRVRNGTDRPCRVRVTAGGETREYTVNPGTELEVELSPEQQNNAEVEVECGNEKYRFQLG
modifications: C21 and C60 found both disulfide-linked and unbound in the crystals
notes: De novo designed immunoglobulin-like domain, double mutant of dIG8; Built as the untagged crystallization construct; also called dIG8-CC (V21C, V60C)
Question: Does B7 bind [3]?
Answer: binds

B8: dIG22 (other)
chain: SIEVRVKGDRYEFRNNSDKPATLEVEKNGKREEYHMNPGESVEVRGPPGQDIRFEMTMDGTTYRYRLS
notes: as for B2
Question: Does B8 bind [2]?
Answer: binds

B9: dIG21 (other)
chain: B8 chain with P47E, T57V, D59E
notes: as for B2
Question: Does B9 bind [4]?
Answer: no binding
